{"source": "patent US20260008856A1", "about": "“METHODS OF TREATING DISEASE USING ANTI-IL1RAP ANTIBODIES AND ANTIBODY DRUG CONJUGATES” (Bluefin Biomedicine, Inc., priority 2022, published 2026)", "molecules": {"B1": {"name": "38E10_21C3: human anti-IL1RAP antibody, VH SEQ ID NO: 74, VL SEQ ID NO: 78 (antibody, V domains shown)", "VH": "EVQLLESGGGLVQPGGSLRLSCAASGFTFSNYAMTWVRQAPGKGLEWVSSISISRAGTYYADSVKGRFTISRDNSKNTLNLQMNSLRAEDTAEYYCAREYYYGMDVWGQGTTVTVSS", "VL": "EIVLTQSPATLSLSPGERATLSCRASQSVSSYLAWYQQKPGQTPRLLIYDASNRATGIPARFSGSGSGTDFTLTISSLETEDFAVYYCQQLINWPLTFGGGTKLEIK"}, "B2": {"name": "10C8_15A1: human anti-IL1RAP antibody, VH SEQ ID NO: 9, VL SEQ ID NO: 13 (antibody, V domains shown)", "VH": "QVQLVESGGGVVQPGRSLRISCAASGFTFRSYGMHWVRQAPGKGLEWVAIIWHDESYKYYVDSVKGRFTISRDNSKNTLYLQMNSLRAEDTAVYYCARGDYYGSGSYYDAFDIWGQGTMVTVSS", "VL": "DIQMTQSPSSLSASVGDRVIITCRASQGISNYLAWFQQKPGKCPNLLIYAASTLRSGVPSRFSGSGSGTDFTLTISSLQPEDVATYYCQKYNSAPYTFGQGTKVEIK"}, "B3": {"name": "32C12_21A4: human anti-IL1RAP antibody, VH SEQ ID NO: 32, VL SEQ ID NO: 36 (antibody, V domains shown)", "VH": "QVQLVESGGGVVQPGRSLRLSCAASGFTFRNYGIHWVRQAPGKGLEWVAVIWYDGSNKFYADSVKGRFTISRDNSKNTLYLQMNSLRVEDTAVYYCAREEGIAVAPFDYWGQGTLVTVSS", "VL": "DIQMTQSPSSLSASVGDRVAITCRANQSIASYLNWYQQKPGKAPKLLIYGASSLQNGVPSRFSGSGSRTDFTLTISSLQPEDFATYYCQQSYSTEITFGQGTRLEIK"}, "B4": {"name": "31F9_21A1: human anti-IL1RAP antibody, VH SEQ ID NO: 118, VL SEQ ID NO: 120 (antibody, V domains shown)", "VH": "QVQLVESGGGMVQPGRSLRLSCTASGFTFSSHGMHWVRQAPGKGLEWVAVIWFDGSNEYYVDSVKGRFTISRDNSKNTLYLQMNSLRAEDTAVYYCARENVYGSGWFFDYWGQGTLVTVSS", "VL": "EIVMTQSPATLSVSPGERASLSCRASQSVGSNLAWYQQKPGQAPRLLIFGASTRATGIPARFSGSRSGTEFTLTISSLQSEDFALYYCQQYNNWPPWTFGQGTKVEIK"}, "B5": {"name": "32F9_21A5: human anti-IL1RAP antibody, VH SEQ ID NO: 123, VL SEQ ID NO: 124 (antibody, V domains shown)", "VH": "B4 VH with V2L, M11V, T23A, F53Y, N57S, V61A, T115S", "VL": "B4 VL with V105L"}, "B6": {"name": "33E9_21A6: human anti-IL1RAP antibody, VH SEQ ID NO: 125, VL SEQ ID NO: 126 (antibody, V domains shown)", "VH": "B4 VH with V2L, M11V, P14F, T23A, F53Y, N57S, V61A", "VL": "B4 VL with V105L"}, "B7": {"name": "32D4_21D6: human anti-IL1RAP antibody, VH SEQ ID NO: 121, VL SEQ ID NO: 122 (antibody, V domains shown)", "VH": "B4 VH with V2L, M11V, T23A, H32Y, F53Y, N57S, V61A", "VL": "B4 VL"}, "B8": {"name": "35D11_22A1: human anti-IL1RAP antibody, VH SEQ ID NO: 127, VL SEQ ID NO: 128 (antibody, V domains shown)", "VH": "B4 VH with V2L, M11V, T23A, H32Y, F53Y, N57S, V61A, Y80F, E89D", "VL": "B4 VL with N92D, V105L"}, "B9": {"name": "34D1_21B3: human anti-IL1RAP antibody, VH SEQ ID NO: 136, VL SEQ ID NO: 137 (antibody, V domains shown)", "VH": "QGQLVESGGGVVQPGRSLRLSCAASGFTFSSYTLHWVRQAPGKGLEWVAVIWYDGSNKYYVDSVKGRFTISRDNSKNTLYLQMNSLRAEDTAVYYCAREYGSGSYYNVYYGMDVWGQGTTVTVSS", "VL": "DIVMTQSPLSLPVTPGEPASISCRSSQSLLHSNGYKYLDWYLQKAGQSPHLLIYLGSNRASGVPDRFSGSGSGTDFTLKISRVEAEDVGFYYCMQTLQIPLTFGGGTKLEIK"}, "B10": {"name": "36A12_21C1: human anti-IL1RAP antibody, VH SEQ ID NO: 144, VL SEQ ID NO: 147 (antibody, V domains shown)", "VH": "EVQLVESGGGLVQPGGSLRLSCAASGFTLSFYWMTWVRQAPGKGLEWVANIKQDGNEKNYVDSVKGRFTISKDNAKKSVFLQMNSLRAEDTAVYYCAREGYFGSGYFDYWGQGTLVTVSS", "VL": "DIQMTQSPSTLSASVGDRVTITCRASQSINSWLAWYQQKPGKAPKLLIYKASTLESGVPSRFSGSGSGTEFTLTISSLQPDDFAPYYCQHYNSYPHTFGQGTKVEIK"}, "B11": {"name": "33H2_21B1: human anti-IL1RAP antibody, VH SEQ ID NO: 140, VL SEQ ID NO: 143 (antibody, V domains shown)", "VH": "EVQVVESGGGLVQPGGSLRLSCATSGFTFRSYWMTWVRQAPGKGLEWVANIKQDGSERHYVDSVKGRFTISRDNAKTSLYLQMSSLRAEDTAMYYCAREGYYGSGYFDYWGQGTLVTVSS", "VL": "B10 VL with T20I, N30S, S31R, W32G, T53N, P85A, H90Q, N92S, S93Y, P95S"}, "B12": {"name": "34H8_21B4: human anti-IL1RAP antibody, VH SEQ ID NO: 185, VL SEQ ID NO: 189 (antibody, V domains shown)", "VH": "QVQLQESGPGLVKPSETLSLTCAVSGYSASGLYYWAWIRQPPGKGLEWIGNIYHSGRTYYNPSLESRVSISLDTSKHQVSLKLKSVTYADTAVYFCARDRFDGFDIWGQGTMVTVSS", "VL": "EIVMTQSPATLSVSPGERATLSCRASQTINNILAWYQQKPGQAPRLLIYGASTRATGIPARFSGSGSGTEFTLTISSLQSEDFAVYYCQQYNNWPLTFGGGTKLEIK"}, "B13": {"name": "41G4_15B6: human anti-IL1RAP antibody, VH SEQ ID NO: 116, VL SEQ ID NO: 36 (antibody, V domains shown)", "VH": "B3 VH with I34M", "VL": "B3 VL"}}, "note": "Numbering of substitutions follows the chain as printed.", "data": [{"system": "MOLT3", "experiment": "Flow cytometry binding to endogenous cell line MOLT3", "assay_type": "cell-based", "set-up": "key: (−): No binding; (+): Weak binding; (++): Moderate binding; (+++): Strong binding", "settings": "primary antibody 1 ug/ml", "procedure": "(§1) Staining for flow cytometry was performed in 1× cold PBS with 0.5% BSA. Primary antibodies (1 ug/ml) were incubated with live cells on ice for 30 minutes, after a brief wash, cells were incubated with Alexa Fluro® 488-conjugated anti-human IgG secondary antibody @1:1000 (709-546-149, Jackson ImmunoResearch). Acquisition of the data was performed on a MACSQuant® Flow Cytometers (Miltenyi Biotec) and analyzed with FlowJo software.", "values": [{"molecule": "B1", "binding to MOLT3 by flow cytometry": "(+)"}, {"molecule": "B2", "binding to MOLT3 by flow cytometry": "(−)"}, {"molecule": "B3", "binding to MOLT3 by flow cytometry": "(+)"}, {"molecule": "B4", "binding to MOLT3 by flow cytometry": "(+)"}, {"molecule": "B5", "binding to MOLT3 by flow cytometry": "(+)"}, {"molecule": "B6", "binding to MOLT3 by flow cytometry": "(+)"}, {"molecule": "B7", "binding to MOLT3 by flow cytometry": "(+)"}, {"molecule": "B8", "binding to MOLT3 by flow cytometry": "(+)"}, {"molecule": "B9", "binding to MOLT3 by flow cytometry": "(+)"}, {"molecule": "B10", "binding to MOLT3 by flow cytometry": "(+)"}, {"molecule": "B11", "binding to MOLT3 by flow cytometry": "(+)"}, {"molecule": "B12", "binding to MOLT3 by flow cytometry": "(+)"}]}, {"target": "T1, recombinant human IL1RAP (Homo sapiens, UniProt Q9NPH3)", "T1 construct": "MBP-IL1RAP(S21-T367)-; 8xHis (C); made in house; host or cells: CHO (ExpiCHO transient expression)", "experiment": "Binding competition binning on Octet", "settings": "Protein A biosensors", "procedure": "Binding Competition binning: Binding competition among different antibodies was determined using a real-time, interferometry assay on an Octet Red™ instrument with Protein A-conjugated biosensors. To assess whether two antibodies competed for binding to a recombinant IL1RAP protein, the assay was performed as follows. Protein A biosensors were first submerged into wells containing 10 ug/mL of individual monoclonal antibodies for 5 minutes. Following the capture step, the biosensors were dipped briefly (15 seconds) into buffer and then any unoccupied sites on the biosensor were saturated by submerging them for 5 minutes into wells containing 100 ug/mL of an irrelevant monoclonal antibody. The Octet™ biosensors were then dipped briefly (15 seconds) in buffer before immersion for 1 minute into wells containing recombinant IL1RAP. The biosensors were dipped briefly (15 seconds) in buffer before immersion for 1 minute into wells containing a second recombinant antibody.\nFor the control case where the second antibody was the same as the first, there was no increase in signal, because there was no additional binding to the recombinant target.\nFor the control case where buffer was used instead of the first antibody, no recombinant target bound the non-quenching antibody on the biosensor and no second antibody bound the biosensor.\nSelected antibodies were evaluated in pairs for their ability to simultaneously bind recombinant human IL1RAP. The analysis was performed by Octet™ loaded with Protein A Biosensors. A total of five different bins were determined as follows.", "values": [{"molecule": "B1", "competition for binding, bin (1)": "competed with each other"}, {"molecule": "B2", "competition for binding, bin (2)": "competed with each other"}, {"molecule": "B3", "competition for binding, bin (2)": "competed with each other"}]}, {"system": "EOL-1", "experiment": "Flow cytometry binding to endogenous cell line EOL-1", "assay_type": "cell-based, human", "set-up": "key to binding to EOL-1 by flow cytometry: (−): No binding; (+): Weak binding; (++): Moderate binding; (+++): Strong binding", "settings": "primary antibody 1 ug/ml", "procedure": "as §1\n(§2) Over 1,000 hits were identified that bind strongly to CHO-human IL1RAP, but not parental CHO cells. 68 clones were selected for molecular cloning. Based on unique CDR3 sequences from the heavy chain variable domain, 35 antibodies from 13 families were confirmed by binding in IL1RAP positive cell lines EOL1 and Karpas 299 (see Table 8) by flow cytometry (MACSQuant® www.miltenybiotec.com).", "values": [{"molecule": "B1", "binding to EOL-1 by flow cytometry": "(+++)"}, {"molecule": "B2", "binding to EOL-1 by flow cytometry": "(+++)"}, {"molecule": "B3", "binding to EOL-1 by flow cytometry": "(+++)"}, {"molecule": "B13", "binding to EOL-1 by flow cytometry": "(+++)"}, {"molecule": "B4", "binding to EOL-1 by flow cytometry": "(+++)"}, {"molecule": "B5", "binding to EOL-1 by flow cytometry": "(+++)"}, {"molecule": "B6", "binding to EOL-1 by flow cytometry": "(+++)"}, {"molecule": "B7", "binding to EOL-1 by flow cytometry": "(+++)"}, {"molecule": "B8", "binding to EOL-1 by flow cytometry": "(+++)"}, {"molecule": "B9", "binding to EOL-1 by flow cytometry": "(+++)"}, {"molecule": "B10", "binding to EOL-1 by flow cytometry": "(+++)"}, {"molecule": "B11", "binding to EOL-1 by flow cytometry": "(+++)"}, {"molecule": "B12", "binding to EOL-1 by flow cytometry": "(+++)"}]}, {"system": "Karpas 299", "experiment": "Flow cytometry binding to endogenous cell line Karpas 299", "assay_type": "cell-based, human", "set-up": "key to binding to Karpas 299 by flow cytometry: (−): No binding; (+): Weak binding; (++): Moderate binding; (+++): Strong binding", "settings": "primary antibody 1 ug/ml", "procedure": "as §1, §2", "values": [{"molecule": "B9", "binding to Karpas 299 by flow cytometry": "(++)"}, {"molecule": "B10", "binding to Karpas 299 by flow cytometry": "(+++)"}, {"molecule": "B11", "binding to Karpas 299 by flow cytometry": "(+++)"}]}]}
